B1: TPR t1 (parent)
chain: GACCAAUCUGCCCUCAGAGCUCGAGAACAUCUUCGGAUGCAGAGGAGGCAGGCUUCGGUGGCGCGAUAGCGCCAACGUCCUCAACCUCCAAUGCAUCCCACCACAUGAUGAUGCCUGAAGAGCCUUGGUUUUUUG

Variants of: B1
Test: polymerase ribozyme fitness, log enrichment relative to wild type (log ratio); higher = more active; in vitro selection for triplet polymerase activity
Method in brief: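 Each subunit of a heterodimeric triplet polymerase ribozyme was represented by a PCR-built, transcribed mutant library that underwent triplicate single-round in vitro selection with frozen incubation at −7 °C. Extended constructs were recovered by gel excision, streptavidin-bead capture and RT-PCR, and Illumina sequencing of input and output libraries kept genotypes with ≥10 input reads and ≥1 read per output. Fitness is the logarithm of genotype enrichment relative to wild-type enrichment, from inverse-variance-weighted replicate averages, with a logarithm base of 2.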

Variant	polymerase ribozyme fitness (log ratio)
GACCAAUCUGCCCUCAGAGCUCGAGAACAUCUUCGGAUGCAGAGGAGGCAGGCUUCGGUGGCGCGAUAGCGUCAACGUCCUCAACCUCCAAUGCAUCCCACCACAUGAUAAUACCUGAAGAGCCUUGGUUUUUUG [C72U G110A G113A]	-4.61
GACCAAUCUGCCCUCAGAGCUCGAGAACAUCUUCGGAUGCAGAGGAGGCAGGCUUCGGUGGCGCGAUAGCGCCAACGUCCUCAGCCUCCAUUGCAUCCCACCACAUGAUGAUGCCUGAAGAGCCUUGGUUUUUUG [A84G A91U]	-3.76
GACCAAUCUGCCCUCAGAGCUCGAGAACAUCUUCGGAUGUGGAAGAGGCAGGCUUCGGGUGCGCGAUAGCGCCAACGUCCUCAACCUCCAAUGCAUCCCACCACAUGAUGAAGCCUGAAGAGCCUUGGUUUUUUG [C40U A41G G44A U59G G60U U112A]	0.462
GACCAAUCUGCCCUCACAGCUCGAGAACUUCUUCGGAUGCAGAGGAGGCAGGCUUCGGUGGCGCGAUAGCGCCAACGUCCUCAACCUCCAAUGCAUCCCACCACAUGAUGAUGCCUGAAGAGCCUUGGUUUUUUG [G17C A29U]	-6.04
GACCAAUGUGCCCUCAGAGCUCGAGAACAUCUUCGGAUGCAGAGGAGGCAGGCUUAGGUGGCGCGAUAGCGCCAACGUCCUCAACCUCCAAUGUAUCCCACCACAUGAUGAUGCCUGAAGAGCCUUGGUUUUUUG [C8G C56A C94U]	0.74
GACCAAUCUGGCCUCAGAGCUCGAGAACAUCUUCGGAUGCAGAGGAGGCAGGCUUCGGUGGCGCGAUAGCGCCAACGUCCUCAACCUCCAAUGCAUCCCACCACAUGAUGUUGCCUGAAGAGCCUUGGUUUUUUG [C11G A111U]	-2.19
GACCAAUCUGCCCUCAGAGCUCGAGAACAUCUUCGGAUGCAGAGGAGGCAGACUUCGGUGGCACGAUAGCGCUAACGUCCCCAACCUCCAAUGCAUCCCACCACAUGAUGAUGACUGAAGAGCCUUGGUUUUUUG [G52A G63A C73U U81C C114A]	-7.55
GACCAAUCUGCCUUCAGAGCUCGAGAACAUCUUCGGAUGCAGAGGAGGCAGGCUUCGGUGGGGCGAUAGCGCCAACGUCCUCAACCUCCAAUGCAUCCCACCACAUGAUGAUGCCUGAAGAGCCUUGGUUUUUUG [C13U C62G]	-0.959
GACCCAUCUGGCCUCAGAGCUCGAGAACAUCUUCGGAUGCAGAGGAGGCAGGCUUCGGUGGCGCGAUAGCGCCAACGUCCUCAACCGCAAAUGCAUCCCACCACAUGAUGAUGCCUGAACAGCCUUGGUUUUUUG [A5C C11G U87G C89A G120C]	-0.971
GACCAAUCUGCCCUCAGAGCUCGAGAGCAUCUUCGGAUGCAGGGGAGGCAGGCUUCGGUGGCCCGAUAGCGCCAACGUCCUCAACCUCCAAUGCAUCCCACCACAUGAUGAUGCCUGAAGAGCCUUGGUUUUUUG [A27G A43G G63C]	-4.38
GACCAAUCUGCCCUCAGAGCUCGAGAACAUCUUCGGAUGCAGAGGAGGCAGGCUUCGGUGGCGCGAUAGCGCCAACGUCCUCAACCUCCAAUGAAUCCCACCACAUGAUGAUGCCUGAAGAGCCAUGGUUUUUUG [C94A U125A]	-0.423
GACCAAUCUGCCCUCAGAGCUCGAGAACAUCCUCGGAUGCAGAGGAGGCAGGCUUCGGUGGCUCGAUAACGCCAACGUCCUCAACCUCCAAUGCAUCCCACCACAUGAUGAUGCCUGAAGAGCCUUGGUUUUUUG [U32C G63U G69A]	-4.13
GACCAAACUGUCCUCAGAGCUCGAGAUCAUCUUCGGAUGCAGAGGAGGCAGGCUUCGGUGGCGCGAUAGCGCCAACGUCCUCAACCUCCCAUGCAUCUCACCACAUGAUGAUGCCUGAAGAGCCUUGGUUUUUUG [U7A C11U A27U A90C C98U]	-7.09
GACCAAUCUGCCCUCAGAGCUCGAGAACAUCUUCGGAUGCAUAGGAGGCAGGCUUUGGUGGCGCGAUAGCGCCAACGUCCUCAACCUCCAAUGCAUCCCACCACAUGAUGAUGCCUGAAGAGCCUUGGUUUUUUG [G42U C56U]	-1.29
GACCAAUCUGCCCUCAGAGCUCGAGAACAUCUUCGGAUGCAGAGGAGGUAGGCUUCGGUGGCGCGAUAGCGCCAACGUCCUCAACCUCCAAUGCAUCCCACCACAUGAUGAUGCCUGAAGAGCCUUGGUUUCUUG [C49U U132C]	-0.889
GACCAAUCUGCCCUCAGAGCUCGAGAACAUCUUCGGAUGCAGAGGAGACAGGCUUCGGUGGCGCGAUAGCGCCAACGUCCUCAACCUCCAAUGCAUCCCACCGCAUGAUUAUGCCUGAAGAGCCUUGGUUUUUUG [G48A A103G G110U]	-6.26
GACCAAUCUGCCCUCAGAGCUCGAGAACAUUUUCGGAUGCAGAGGAGGCAGGCUUCGGUGGCGCGAUAGCGCCAACGUCCUCAACCCCCAAUGCAUCCCACCACAUGAUGAUUCCUGAAGAGGCUUGGUUUAUUG [C31U U87C G113U C123G U132A]	-5.61
GACCAAUCUGCCCUGAGAGAUCGAGAACAUCUUCGGAUGCAGAGGAGGCAGGCUUCGGUGGCGCGAUAUCGCCAACGUCCACAACCUCCAAUGCAUCCCACCACAUGAUGAUGCCUGAAGAGCAUUGGUUUUUUG [C15G C20A G69U U81A C124A]	-1.08
GACCAAUCUGCGCUCAGAGCUCGAGAACAUCUUCGGAUGCAGAGGAGGCAGGCUUCGGUGGCGCGAUAGCGCCAACGUCCUCAACCUCCAAUGCAUCCCAGGACAUGAUCAUGCCUGAAGAGCCUUGGUUUUUUG [C12G C101G C102G G110C]	-5.71
GACCAAUCUGCCCUCAGAGCUCGAGAACAUCUUCGGAUGCAGAGGAGGCAGGCUUCGGUGGCGCGAUAGCGCCAACGUCCUCAACCUCGAAUGCAUCCCACCACAUGAUGAUGCCUGAAGAGUCUUGGUUUUUUG [C89G C123U]	-0.521
GACCAAUCUGCCCUCAGAGCUCGAGAGCAUCUUAGGAUGCAGAGGAGGCAGGCUUCGGUGGCGCGAUAGCGCCAACGUCCUCAACCUCCAAUGCAUCCCACCACAUGAUGAUGCCUGAAGAGCCUUGGUUUUUUG [A27G C34A]	-4.06

Source: the RNAGym collection of RNA variant scans (doi:10.1073/pnas.2313332121)
